Earlier results as cited in article PMC3514595.

Target: IL-15Rα (UniProt Q13261)
UniProt Q13261, sequence (Q13261 31-205): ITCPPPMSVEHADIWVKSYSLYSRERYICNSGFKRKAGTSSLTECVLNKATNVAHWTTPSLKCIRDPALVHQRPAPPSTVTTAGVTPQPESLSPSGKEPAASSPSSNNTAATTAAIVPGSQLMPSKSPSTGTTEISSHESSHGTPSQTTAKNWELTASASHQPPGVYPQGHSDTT

Substance: IL-15 (from UniProt P40933)
- Kd: 38 pM
